Experimental data published in patent US8586570.

B1: PKCζ (enzyme, UniProt Q05513 1-592, looked up, species assumed)
Protein kinase C zeta type: MPSRTGPKMEGSGGRVRLKAHYGGDIFITSVDAATTFEELCEEVRDMCRLHQQHPLTLKWVDSEGDPCTVSSQMELEEAFRLARQCRDEGLIIHVFPSTPEQPGLPCPGEDKSIYRRGARRWRKLYRANGHLFQAKRFNRRAYCGQCSERIWGLARQGYRCINCKLLVHKRCHGLVPLTCRKHMDSVMPSQEPPVDDKNEDADLPSEETDGIAYISSSRKHDSIKDDSEDLKPVIDGMDGIKISQGLGLQDFDLIRVIGRGSYAKVLLVRLKKNDQIYAMKVVKKELVHDDEDIDWVQTEKHVFEQASSNPFLVGLHSCFQTTSRLFLVIEYVNGGDLMFHMQRQRKLPEEHARFYAAEICIALNFLHERGIIYRDLKLDNVLLDADGHIKLTDYGMCKEGLGPGDTTSTFCGTPNYIAPEILRGEEYGFSVDWWALGVLMFEMMAGRSPFDIITDNPDMNTEDYLFQVILEKPIRIPRFLSVKASHVLKGFLNKDPKERLGCRPQTGFSDIKSHAFFRSIDWDLLEKKQALPPFQPQITDDYGLDNFDTQFTSEPVQLTPDDEDAIKRIDQSEFEGFEYINPLLLSTEESV
B2: PKCι (enzyme, UniProt P41743 2-596, looked up, species assumed)
Protein kinase C iota type: PTQRDSSTMSHTVAGGGSGDHSHQVRVKAYYRGDIMITHFEPSISFEGLCNEVRDMCSFDNEQLFTMKWIDEEGDPCTVSSQLELEEAFRLYELNKDSELLIHVFPCVPERPGMPCPGEDKSIYRRGARRWRKLYCANGHTFQAKRFNRRAHCAICTDRIWGLGRQGYKCINCKLLVHKKCHKLVTIECGRHSLPQEPVMPMDQSSMHSDHAQTVIPYNPSSHESLDQVGEEKEAMNTRESGKASSSLGLQDFDLLRVIGRGSYAKVLLVRLKKTDRIYAMKVVKKELVNDDEDIDWVQTEKHVFEQASNHPFLVGLHSCFQTESRLFFVIEYVNGGDLMFHMQRQRKLPEEHARFYSAEISLALNYLHERGIIYRDLKLDNVLLDSEGHIKLTDYGMCKEGLRPGDTTSTFCGTPNYIAPEILRGEDYGFSVDWWALGVLMFEMMAGRSPFDIVGSSDNPDQNTEDYLFQVILEKQIRIPRSLSVKAASVLKSFLNKDPKERLGCHPQTGFADIQGHPFFRNVDWDMMEQKQVVPPFKPNISGEFGLDNFDSQFTNEPVQLTPDDDDIVRKIDQSEFEGFEYINPLLMSAEECV
B3: PKCν (enzyme, UniProt O94806 1-890, looked up, species assumed)
Serine/threonine-protein kinase D3: MSANNSPPSAQKSVLPTAIPAVLPAASPCSSPKTGLSARLSNGSFSAPSLTNSRGSVHTVSFLLQIGLTRESVTIEAQELSLSAVKDLVCSIVYQKFPECGFFGMYDKILLFRHDMNSENILQLITSADEIHEGDLVEVVLSALATVEDFQIRPHTLYVHSYKAPTFCDYCGEMLWGLVRQGLKCEGCGLNYHKRCAFKIPNNCSGVRKRRLSNVSLPGPGLSVPRPLQPEYVALPSEESHVHQEPSKRIPSWSGRPIWMEKMVMCRVKVPHTFAVHSYTRPTICQYCKRLLKGLFRQGMQCKDCKFNCHKRCASKVPRDCLGEVTFNGEPSSLGTDTDIPMDIDNNDINSDSSRGLDDTEEPSPPEDKMFFLDPSDLDVERDEEAVKTISPSTSNNIPLMRVVQSIKHTKRKSSTMVKEGWMVHYTSRDNLRKRHYWRLDSKCLTLFQNESGSKYYKEIPLSEILRISSPRDFTNISQGSNPHCFEIITDTMVYFVGENNGDSSHNPVLAATGVGLDVAQSWEKAIRQALMPVTPQASVCTSPGQGKDHKDLSTSISVSNCQIQENVDISTVYQIFADEVLGSGQFGIVYGGKHRKTGRDVAIKVIDKMRFPTKQESQLRNEVAILQNLHHPGIVNLECMFETPERVFVVMEKLHGDMLEMILSSEKSRLPERITKFMVTQILVALRNLHFKNIVHCDLKPENVLLASAEPFPQVKLCDFGFARIIGEKSFRRSVVGTPAYLAPEVLRSKGYNRSLDMWSVGVIIYVSLSGTFPFNEDEDINDQIQNAAFMYPPNPWREISGEAIDLINNLLQVKMRKRYSVDKSLSHPWLQDYQTWLDLREFETRIGERYITHESDDARWEIHAYTHNLVYPKHFIMAPNPDDMEEDP
B4: PKCµ (enzyme, UniProt Q15139 1-912, looked up, species assumed)
Serine/threonine-protein kinase D1: MSAPPVLRPPSPLLPVAAAAAAAAAALVPGSGPGPAPFLAPVAAPVGGISFHLQIGLSREPVLLLQDSSGDYSLAHVREMACSIVDQKFPECGFYGMYDKILLFRHDPTSENILQLVKAASDIQEGDLIEVVLSASATFEDFQIRPHALFVHSYRAPAFCDHCGEMLWGLVRQGLKCEGCGLNYHKRCAFKIPNNCSGVRRRRLSNVSLTGVSTIRTSSAELSTSAPDEPLLQKSPSESFIGREKRSNSQSYIGRPIHLDKILMSKVKVPHTFVIHSYTRPTVCQYCKKLLKGLFRQGLQCKDCRFNCHKRCAPKVPNNCLGEVTINGDLLSPGAESDVVMEEGSDDNDSERNSGLMDDMEEAMVQDAEMAMAECQNDSGEMQDPDPDHEDANRTISPSTSNNIPLMRVVQSVKHTKRKSSTVMKEGWMVHYTSKDTLRKRHYWRLDSKCITLFQNDTGSRYYKEIPLSEILSLEPVKTSALIPNGANPHCFEITTANVVYYVGENVVNPSSPSPNNSVLTSGVGADVARMWEIAIQHALMPVIPKGSSVGTGTNLHRDISVSISVSNCQIQENVDISTVYQIFPDEVLGSGQFGIVYGGKHRKTGRDVAIKIIDKLRFPTKQESQLRNEVAILQNLHHPGVVNLECMFETPERVFVVMEKLHGDMLEMILSSEKGRLPEHITKFLITQILVALRHLHFKNIVHCDLKPENVLLASADPFPQVKLCDFGFARIIGEKSFRRSVVGTPAYLAPEVLRNKGYNRSLDMWSVGVIIYVSLSGTFPFNEDEDIHDQIQNAAFMYPPNPWKEISHEAIDLINNLLQVKMRKRYSVDKTLSHPWLQDYQTWLDLRELECKIGERYITHESDDLRWEKYAGEQGLQYPTHLINPSASHSDTPETEETEMKALGERVSIL

Tested on: PKCα-S10

Protein | phosphorylation activity (1 µM peptide, 2 ng kinase)
B1 | very little activity is detected with PKCε, PKCζ, PKCη and PKCι
B2 | very little activity is detected with PKCε, PKCζ, PKCη and PKCι
B3 | no activity is observed with PKCδ, PKCµ, and PKCν
B4 | no activity is observed with PKCδ, PKCµ, and PKCν
